In patent publication US20210196796A1 (SYNTHEKINE, published 2021):

T1: orthogonal hCD122 receptor (hoRb), hCD122 with H133D and Y134F (human, UniProt P14784 27-550)
T1 sequence: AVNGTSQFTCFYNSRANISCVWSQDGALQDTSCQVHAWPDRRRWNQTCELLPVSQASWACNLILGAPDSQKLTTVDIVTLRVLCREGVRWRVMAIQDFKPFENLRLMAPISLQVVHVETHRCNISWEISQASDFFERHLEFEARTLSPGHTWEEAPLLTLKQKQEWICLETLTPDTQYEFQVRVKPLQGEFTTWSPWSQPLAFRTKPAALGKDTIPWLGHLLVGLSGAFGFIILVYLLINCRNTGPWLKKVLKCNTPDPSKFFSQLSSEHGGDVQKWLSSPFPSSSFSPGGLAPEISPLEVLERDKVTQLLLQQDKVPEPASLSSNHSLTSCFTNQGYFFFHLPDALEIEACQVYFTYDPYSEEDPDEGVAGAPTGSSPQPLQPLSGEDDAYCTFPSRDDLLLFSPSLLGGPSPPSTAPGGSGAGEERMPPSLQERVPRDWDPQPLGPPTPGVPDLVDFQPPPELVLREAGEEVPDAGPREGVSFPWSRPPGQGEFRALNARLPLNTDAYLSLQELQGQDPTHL


Key:
[1] = biological target: T1, orthogonal hCD122 receptor (hoRb), …; test: cell-based or functional assay
[2] = biological target: T1, orthogonal hCD122 receptor (hoRb), …; test: cell-based or functional assay; remark: listed apart in the source
Wherever Relative Proliferation Fold Change 3F8 1:10 is given: reference of the scale not given here.
Wherever Relative Proliferation Fold Change 3F8 1:2 is given: reference of the scale not given here.
Wherever Relative Proliferation Fold Change 3F8 1:50 is given: reference of the scale not given here.
Wherever Relative Proliferation Fold Change NKL 1:10 is given: reference of the scale not given here.
Wherever Relative Proliferation Fold Change NKL 1:2 is given: reference of the scale not given here.
Wherever Relative Proliferation Fold Change NKL 1:50 is given: reference of the scale not given here.

| Binder | 3F8 Ortho Proliferation Signal 1:2 [1] | 3F8 Ortho Proliferation Signal 1:10 [1] | 3F8 Ortho Proliferation Signal 1:50 [1] | Relative Proliferation Fold Change 3F8 1:2 [1] | Relative Proliferation Fold Change 3F8 1:10 [1] | Relative Proliferation Fold Change 3F8 1:50 [1] | NKL Ortho Proliferation Signal 1:2 [2] | NKL Ortho Proliferation Signal 1:10 [2] | NKL Ortho Proliferation Signal 1:50 [2] | Relative Proliferation Fold Change NKL 1:2 [2] | Relative Proliferation Fold Change NKL 1:10 [2] | Relative Proliferation Fold Change NKL 1:50 [2] |
| --- | --- | --- | --- | --- | --- | --- | --- | --- | --- | --- | --- | --- |
| M39L, SQVLKA (ligand) APTSSSTKKTQLQLSQLLVLLKAILNGINNYKNPKLTRLLTFKFYMPKKATELKHLQCLEEELKPLEEVLNLAQSKNFHLRPRDLISNINVIVLELKGSETTFMCEYADETATIVEFLNRWITFCQSIISTLT | 31200 cts/min | 24600 cts/min | 12200 cts/min | 179 fold | 76.7 fold | 37.1 fold | 57600 | 44100 | 21800 | 4.47 fold | 2.84 fold | 1.49 fold |
| T51I, SQVLKA (ligand) APTSSSTKKTQLQLSQLLVLLKAILNGINNYKNPKLTRMLTFKFYMPKKAIELKHLQCLEEELKPLEEVLNLAQSKNFHLRPRDLISNINVIVLELKGSETTFMCEYADETATIVEFLNRWITFCQSIISTLT | 31900 cts/min | 20200 cts/min | 11600 cts/min | 111 fold | 43.1 fold | 15.6 fold | 50800 | 37900 | 18500 | 3.57 fold | 2.64 fold | 1.4 fold |
| H55Y, SQVLKA (ligand) APTSSSTKKTQLQLSQLLVLLKAILNGINNYKNPKLTRMLTFKFYMPKKATELKYLQCLEEELKPLEEVLNLAQSKNFHLRPRDLISNINVIVLELKGSETTFMCEYADETATIVEFLNRWITFCQSIISTLT | 24600 cts/min | 29500 cts/min | 16500 cts/min | 63 fold | 23.5 fold | 16.7 fold | 47100 | 37100 | 17800 | 3.72 fold | 2.34 fold | 1.22 fold |
| M39V, SQVLKA (ligand) APTSSSTKKTQLQLSQLLVLLKAILNGINNYKNPKLTRVLTFKFYMPKKATELKHLQCLEEELKPLEEVLNLAQSKNFHLRPRDLISNINVIVLELKGSETTFMCEYADETATIVEFLNRWITFCQSIISTLT | 29200 cts/min | 22900 cts/min | 9630 cts/min | 110 fold | 51.3 fold | 16.7 fold | 42800 | 31300 | 15300 | 2.72 fold | 1.85 fold | 0.92 fold |
| F42K, SQVLKA (ligand) APTSSSTKKTQLQLSQLLVLLKAILNGINNYKNPKLTRMLTKKFYMPKKATELKHLQCLEEELKPLEEVLNLAQSKNFHLRPRDLISNINVIVLELKGSETTFMCEYADETATIVEFLNRWITFCQSIISTLT | 10300 cts/min | 5760 cts/min | 1570 cts/min | 43.5 fold | 12.7 fold | 2.2 fold | 11900 | 10500 | 8730 | 0.83 fold | 0.6 fold | 0.52 fold |
| Q13W SQVLKA (ligand) APTSSSTKKTQLWLSQLLVLLKAILNGINNYKNPKLTRMLTFKFYMPKKATELKHLQCLEEELKPLEEVLNLAQSKNFHLRPRDLISNINVIVLELKGSETTFMCEYADETATIVEFLNRWITFCQSIISTLT | 27000 cts/min | 16900 cts/min | 6420 cts/min | 148 fold | 22.2 fold | 10.9 fold | 13700 | 12900 | 8730 | 1.24 fold | 0.84 fold | 0.63 fold |

The remaining lines, values ahead:

| 3F8 Ortho Proliferation Signal 1:2 [1] | 3F8 Ortho Proliferation Signal 1:10 [1] | 3F8 Ortho Proliferation Signal 1:50 [1] | Relative Proliferation Fold Change 3F8 1:2 [1] | Relative Proliferation Fold Change 3F8 1:10 [1] | Relative Proliferation Fold Change 3F8 1:50 [1] | NKL Ortho Proliferation Signal 1:2 [2] | NKL Ortho Proliferation Signal 1:10 [2] | NKL Ortho Proliferation Signal 1:50 [2] | Relative Proliferation Fold Change NKL 1:2 [2] | Relative Proliferation Fold Change NKL 1:10 [2] | Relative Proliferation Fold Change NKL 1:50 [2] | Binder |
| --- | --- | --- | --- | --- | --- | --- | --- | --- | --- | --- | --- | --- |
| 9940 cts/min | 7070 cts/min | 1060 cts/min | 59.1 fold | 8.73 fold | 2.17 fold | 12100 | 10100 | 7780 | 1 fold | 0.71 fold | 0.58 fold | ΔT51, SQVLKA (ligand) APTSSSTKKTQLQLSQLLVLLKAILNGINNYKNPKLTRMLTFKFYMPKKAELKHLQCLEEELKPLEEVLNLAQSKNFHLRPRDLISNINVIVLELKGSETTFMCEYADETATIVEFLNRWITFCQSIISTLT |
| 34200 cts/min | 36400 cts/min | 21900 cts/min | 116 fold | 96.8 fold | 17.5 fold | 55100 | 47400 | 22600 | 4.23 fold | 3.18 fold | 1.67 fold | Q74N, SQVLKA (ligand) APTSSSTKKTQLQLSQLLVLLKAILNGINNYKNPKLTRMLTFKFYMPKKATELKHLQCLEEELKPLEEVLNLANSKNFHLRPRDLISNINVIVLELKGSETTFMCEYADETATIVEFLNRWITFCQSIISTLT |
| 36400 cts/min | 32500 cts/min | 27100 cts/min | 18.7 fold | 56.7 fold | 33.8 fold | 54600 | 65700 | 35000 | 4.07 fold | 4.17 fold | 2.44 fold | Q74S, SQVLKA (ligand) APTSSSTKKTQLQLSQLLVLLKAILNGINNYKNPKLTRMLTFKFYMPKKATELKHLQCLEEELKPLEEVLNLASSKNFHLRPRDLISNINVIVLELKGSETTFMCEYADETATIVEFLNRWITFCQSIISTLT |
| 34900 cts/min | 34800 cts/min | 21200 cts/min | 30.6 fold | 38 fold | 32.7 fold | 62500 | 51600 | 24300 | 4.26 fold | 3.13 fold | 1.58 fold | L80V, SQVLKA (ligand) APTSSSTKKTQLQLSQLLVLLKAILNGINNYKNPKLTRMLTFKFYMPKKATELKHLQCLEEELKPLEEVLNLAQSKNFHVRPRDLISNINVIVLELKGSETTFMCEYADETATIVEFLNRWITFCQSIISTLT |
| 37200 cts/min | 26800 cts/min | 25800 cts/min | 1.01 fold | 2.8 fold | 16.8 fold | 61200 | 67800 | 33200 | 4.24 fold | 4.14 fold | 2.27 fold | L80F, SQVLKA (ligand) APTSSSTKKTQLQLSQLLVLLKAILNGINNYKNPKLTRMLTFKFYMPKKATELKHLQCLEEELKPLEEVLNLAQSKNFHFRPRDLISNINVIVLELKGSETTFMCEYADETATIVEFLNRWITFCQSIISTLT |
| 35100 cts/min | 28700 cts/min | 21200 cts/min | 64.7 fold | 42.9 fold | 53 fold | 58300 | 50300 | 23000 | 3.89 fold | 3.18 fold | 1.6 fold | Q74H, SQVLKA (ligand) APTSSSTKKTQLQLSQLLVLLKAILNGINNYKNPKLTRMLTFKFYMPKKATELKHLQCLEEELKPLEEVLNLAHSKNFHLRPRDLISNINVIVLELKGSETTFMCEYADETATIVEFLNRWITFCQSIISTLT |
